For assay [1], the target named is MyoF-Motor (MyoF lacking its WD40 tail domain, a.a. 1–1265, C-terminal biotin–FLAG tag), heavy chain (T. gondii). Briefly: negative-stain electron microscopy; negatively stained images of purified myosin constructs with co-purified light chain.
Assay [2] concerns the target MyoF-Tail (coiled-coil region, linker and WD40 domain, a.a. 987–1953, C-terminal biotin–FLAG tag) (T. gondii). Briefly: SEC; analytical; 0.25 mg/ml MyoF-Tail on Superdex 10/300 GL; 10 mM imidazole pH 7.4, 300 mM NaCl, 1 mM EGTA, 1 mM DTT; standards ferritin 440 kDa and thyroglobulin 660 kDa. A general note: Size exclusion chromatography separates by hydrodynamic size, large species first.

For assay [3], the target named is MyoF-Motor (MyoF lacking its WD40 tail domain, a.a. 1–1265, C-terminal biotin–FLAG tag), heavy chain (T. gondii).
Assay [4] has the same target. In words: thermal denaturation (calmodulin-binding) assay.
Assay [5] addresses Toxoplasma gondii actin (TgAct1) filaments (T. gondii) (UniProt P53476).
Assay [6] has the same target. In words: single-molecule motility assay (fluorescence microscopy); full-length MyoF mixed 1:5 with Alexa Fluor 647–streptavidin; TgAct1 filaments (jasplakinolide-stabilised or unstabilised) or skeletal actin-fascin bundles (phalloidin or jasplakinolide) held on the flow cell; 2 mM MgATP; 37°C.
The target in assay [7] is full-length MyoF with a C-terminal biotin–FLAG tag, heavy chain (T. gondii). In words: negative-stain electron microscopy; negatively stained images of purified myosin constructs with co-purified light chain.

Data on five substances can be found in publication PMC13120683.

Values joined by “and” are separate entries in the source; they are usually repeats but may differ in a detail not shown here. Equal values may be shown once.

In the case of “MyoF-Motor (MyoF lacking its WD40 tail domain, a.a. 1–1265, C-terminal biotin–FLAG tag), heavy chain (domain or fragment)”, the stoichiometry N – broadly, a count of units in the complex or per binding partner – in assay [1] turned out to be 2.

“MyoF-Tail (coiled-coil region, linker and WD40 domain, a.a. 987–1953, C-terminal biotin–FLAG tag) (domain or fragment)”: in assay [2], the stoichiometry N was above 6.

Turning to “TgCam (calmodulin), untagged, co-expressed in Sf9 cells (natural protein)”, in assay [3], the in vitro gliding filament motility speed of MyoF-Motor bound to only TgCam (skeletal actin) turned out to be 1.2 µm/s. In assay [4], this substance yielded a stoichiometry N (calmodulin light chains per heavy chain) of 3.

In assay [5], “full-length MyoF co-purified with TgCam (complex)” registered a run length (λ) of single full-length MyoF complexes on jasplakinolide-stabilized TgAct1 filaments of 1.14 µm and a velocity of single full-length MyoF complexes on jasplakinolide-stabilized TgAct1 filaments of 1.5 µm/s. The pause time at filament ends in assay [6] came out at 1.5 s.

Turning to “full-length MyoF with a C-terminal biotin–FLAG tag, heavy chain (natural protein)”, the stoichiometry N in assay [7] was 3 heads and 6 heads.
